Source: patent EP4729537A1 (Universitat Politècnica de València, dated 2024)

What was measured:
[1] = biological target: T1, antigenic protein: class A β-lactamase fragment of Mycobacterium abscessus (Blamab gene) with C-terminal TEV … (Mycobacterium abscessus); assay: cell-based or functional assay
[2] = biological target: T1, antigenic protein: class A β-lactamase …; assay: nitrocefin hydrolysis assay with purified enzyme, Lineweaver-Burk
[3] = biological target: T2, KPC-2 from Klebsiella pneumoniae, expressed in the periplasm of E. coli BL21(DE3) (Klebsiella pneumoniae, UniProt Q848S6 25-293); assay: nitrocefin assay on E. coli BL21(DE3) cells with the β-lactamase in the periplasm
T2 construct: Expressed from pET26b(+) with a pelB export signal

[4] = biological target: T3, OXA-48 from Klebsiella pneumoniae, expressed in the periplasm of E. coli BL21(DE3) (Klebsiella pneumoniae, UniProt Q6XEC0 23-265, limits assumed); assay: as above
T3 construct: Expressed from pET26b(+) with a pelB export signal

[5] = biological target: T4, VIM-2 from Pseudomonas aeruginosa, expressed in the periplasm of E. coli BL21(DE3) (Pseudomonas aeruginosa); assay: as above
[6] = biological target: T2, KPC-2 from Klebsiella pneumoniae, …; assay: cell-based or functional assay
[7] = biological target: T3, OXA-48 from Klebsiella pneumoniae, …; assay: cell-based or functional assay
[8] = biological target: T4, VIM-2 from Pseudomonas aeruginosa, …; assay: cell-based or functional assay

Binder	Km (µM), with antibody [1] [µM]	Vmax (µM/min), with antibody [1] [µM/min]	Ki [2] [µM]	Ki [3] [µM]	Ki [4] [µM]	Ki [5] [µM]	further results
β-lactamase inhibitor B6 antibody (VHH, sdAb from a synthetic naive yeast display library; expressed from pET26b in the E. coli periplasm and purified by chromatography; also called sdAb B6) VHH: QVQLQESGGGLVQAGGSLRLSCAASGTISAVSGMGWYRQAPGKEREFVASINRGSTTNYADSVKGRFTISRDNAKNTVYLQMNSLKPEDTAVYYCAALHGTGRVHVYWGQGTQVTVSS	53.3	0.26	4.9	–	–	–	–
β-lactamase inhibitor B5 antibody (VHH, sdAb from a synthetic naive yeast display library; expressed from pET26b in the E. coli periplasm and purified by chromatography; also called sdAb B5) VHH: QVQLQESGGGLVQAGGSLRLSCAASGNISDLGTMGWYRQAPGKEREFVAGIGTGSNTYYADSVKGRFTISRDNAKNTVYLQMNSLKPEDTAVYYCAVIAGRSYWIYFYYWGQGTQVTVSS	57.3	0.23	3.8	0.12	30.8	68.9	Km(µM), with B5 [6]: 2.19 µM; Vmax(µM/min), with B5 [6]: 0.5 µM/min; Km(µM), with B5 [7]: 2.26 µM; Vmax(µM/min), with B5 [7]: 0.061 µM/min; Km(µM), with B5 [8]: 0.97 µM; Vmax(µM/min), with B5 [8]: 0.0084 µM/min
β-lactamase inhibitor B4 antibody (VHH, sdAb from a synthetic naive yeast display library; expressed from pET26b in the E. coli periplasm and purified by chromatography; also called sdAb B4) VHH: QVQLQESGGGLVQAGGSLRLSCAASGTIFAQDYMGWYRQAPGKEREFVASIAYGTITYYADSVKGRFTISRDNAKNTVYLQMNSLKPEDTAVYYCAVYPTPVTDYIYWGQGTQVTVSS	45.6	0.28	5.2	–	–	–	–
β-lactamase inhibitor B2 antibody (VHH, sdAb from a synthetic naive yeast display library; expressed from pET26b in the E. coli periplasm and purified by chromatography; also called sdAb B2) VHH: QVQLQESGGGLVQAGGSLRLSCAASGTIFVYPYMGWYRQAPGKEREFVAGIGQGATTYYADSVKGRFTISRDNAKNTVYLQMNSLKPEDTAVYYCAAYRYRDDVRRYGIDRYHTYWGQGTQVTVSS	64.4	0.25	2.4	0.06	10.5	2.9	Km(µM), with B2 [6]: 121 µM; Vmax(µM/min), with B2 [6]: 0.7 µM/min; Km(µM), with B2 [7]: 6.62 µM; Vmax(µM/min), with B2 [7]: 0.059 µM/min; Km(µM), with B2 [8]: 39.6 µM; Vmax(µM/min), with B2 [8]: 0.017 µM/min
single domain antibody B1 (VHH, sdAb from a synthetic naive yeast display library; expressed from pET26b in the E. coli periplasm and purified by chromatography; also called sdAb B1) VHH: QVQLQESGGGLVQAGGSLRLSCAASGNIFTVSSMGWYRQAPGKEREFVAAISDGATTNYADSVKGRFTISRDNAKNTVYLQMNSLKPEDTAVYYCAAYASRVGLTVYWGQGTQVTVSS	42.6	0.26	15.6	–	–	–	–
β-lactamase inhibitor B3 antibody (VHH, sdAb from a synthetic naive yeast display library; expressed from pET26b in the E. coli periplasm and purified by chromatography; also called sdAb B3) VHH: QVQLQESGGGLVQAGGSLRLSCAASGTIFYYPYMGWYRQAPGKEREFVAGIDYGSTTYYADSVKGRFTISRDNAKNTVYLQMNSLKPEDTAVYYCAVVYLVTRKGASQQDEIYSYWGQGTQVTVSS	51.9	0.34	2.7	–	–	–	–
